Literature values as cited in article PMC8199105.
pKd: −log10 of the molar value.

Target: Albumin (UniProt P02768)
Experiment: surface plasmon resonance

pKd: 6.20
Substance: Cubilin (from UniProt O70244)
